Reference: paper PMC6096475, “Structure of the GH9 glucosidase/glucosaminidase from Vibrio cholerae” (Acta Crystallographica. Section F, Structural Biology …, 2018)

Tested on: Cc1cc(=O)oc2cc(O[C@@H]3O[C@H](CO)[C@@H](O)[C@H](O)[C@H]3O)ccc12
Assay: purified protein
Details: 20 mM sodium phosphate pH 6.5, 1 µM enzyme, temperature not stated

## VC0615 (Vibrio cholerae O1 biovar El Tor str. N16961)
  Km: 768 µM
  kcat: 0.0217 s⁻¹
